The term Kd denotes a measure of binding affinity in units of concentration. What is called stoichiometry N is a count of units in the complex or per binding partner.

The text below walks through data of publication PMC2712976 (The Journal of General Physiology, 2009).

The target in one data set is F-actin (UniProt P68135). Description: co-sedimentation.
The data set “gel electrophoresis” deals with the molecule itself. Kind of data set: gel electrophoresis.
Another data set has as its target CFP-SERCA1a (UniProt O14983-2 1-994). Kind of data set: FRET or BRET. On the technique in general: Bioluminescence resonance energy transfer reports proximity on the nanometre scale.

In the data set with F-actin, “first four N-terminal domains (C0-C1-motif-C2) of cardiac myosin binding protein C (domain or fragment)” returned a Kd of 10 µM and a stoichiometry N of 1 molar ratio.

B1: WT phospholamban (in vitro sample) (natural protein)
chain: MEKVQYLTRSAIRRASTIEMPQQARQKLQNLFINFCLILICLLLICIIVMLL
With B1, in the data set “gel electrophoresis”, the “stoichiometry N” value amounted to 5.

B2: YFP-PLB (natural protein)
chain: B1 chain
Turning to B2, the “fold higher apparent affinity relative to SERCA2a” value with CFP-SERCA1a stood at 2.6 fold.
